Results reported in patent publication US20230212587A1, “Mutant Hydroxyphenylpyruvate Dioxygenase Polypeptide, Encoding Gene Thereof and Use Therefor” (Beijing Dabeinong Biotechnology Co., Ltd., priority 2019, published 2023).
Where a chain is given by its changes, count along the chain named. Numbers in names are those of the source.

B1: N3HPPDm-F372G: Burkholderia sp. N3 HPPD mutant F372G, SEQ ID NO: 341 (protein)
chain: MQIPNWENPVGTDGFEFIEYTAPDPKALGQLFERMGFTAIARHRHKDVTVYRQGDINFIINAEPHSFAQRFARLHGPSICAIAFRVQDAAKAYQHALELGAWGFDNKTGPMELNIPAIKGIGDSLIYFVDRWRGKNGAQPGAIGDISIYDVDFEPIAGANPNPAGHGLTYIDHLTHNVHRGRMQEWAEFYERLFNFREVRYFDIEGKVTGVKSKAMTSPCGKIRIPINEEGSDTAGQIQEYLDAYHGEGIQHIALGTNDIYGAVDGLRGKEVKLLDTIDTYYELVDRRVPDHGESLDELKKRKILIDGARDDLLLQIGTENQIGPIFFEIIQRKGNQGFGEGNFKALFESIELDQIRRGVVQDKA
modifications: N3HPPDm-F372G Amino Acid Sequence
B2: N4HPPDm-F372G: Burkholderia sp. N4 HPPD mutant F372G, SEQ ID NO: 343 (protein)
chain: B1 chain with H65D, N160T, N258S, N343T
modifications: N4HPPDm-F372G Amino Acid Sequence
B3: N2HPPDm-F372G: Sphingobium sp. N2 HPPD mutant F372G, SEQ ID NO: 339 (protein)
chain: MTLFDNPLGLDGFEFVEFSAPAKGMLEPVFAAMGFVMIARHRSKDVQLWRQGGINLIANYEPRSPAAYFAAEHGPSACGMGWRVRNAAKAYELAVERGAEPVDVKTGPMELRLPAIRGIGGSIIYLIDRYEDEDGGLSIYDIDFVYEPGVDRHPEGAGFKIIDHLTHNVYGGRMAHWASFYERVFGFREIRYFDIKGEYTGLTSKAMTAPDGKIRIPLNEEGKAGGGQIEEFLRAYNGEGIQHIAFLCDDLIAAWDKLKALGTPLMTAPPATYYEMLDERLPGHGEPVAELQKRGILLDGSTQQGDPRLLLQIGGQATIGPVFFEFIQRKKDEGFGEGNFTALFESMERDQLRRGTLNAGESA
modifications: N2HPPDm-F372G Amino Acid Sequence
B4: N1HPPDm-F372G: Sphingobium sp. N1 HPPD mutant F372G, SEQ ID NO: 337 (protein)
chain: MAADSENPLGLHGFAFAEFTSPDPAAMARQFEQLGFVPAARRKDRGLTLYRQGRIAFILNAGEGEQASAFRAAHGPSANGMAFNVADAKAAHRHAIQSGATDADTAQSALPGTYAIEGIGDSLLYLVDSDPFADWDEVPGWREASAERGVGLDLLDHLTHNVRRGQMRVWSEFYATLFGFEEQKFFDIKGQATGLFSQAMIAPDHEIRIPLNESQDDNSQIEEFIREYNGEGIQHLALTTPDIYSTVEKLRANGVRLQDTIDTYYDLVDERVPGHGEDLARLRKNRILIDGDVHDEGLLLQIGTETMFGPIFFEIIQRKGNEGFGNGNFQVLYESIELDQIRRGVVTVDA
modifications: N1HPPDm-F372G Amino Acid Sequence
B5: AhHPPDm-F372G: Arachis hypogaea HPPD mutant F372G, SEQ ID NO: 333 (protein)
chain: MATAYTYAHAVTYCNSQHNPPIIPILSTNQHPPRVTLPSSIPHFISTITTFNLKHFPSHSLHTVMVTQTQQNAPSSSPELGFKLVGFKNFVRTNPKSDRFKVIRFHHVEFWCTDATNTASRFSWGLGMPIVAKSDLSTGNAVHASYLLRSGDLNFLFSAPYSASIAGDGASASFPSFSASDCHSFAAKHGLAVRAVAIEVEDASAAFSASVANGAKPVSPAVLLDNSVGFAEVHLYGDVVLRYISYSAPTRESNLNPTLRFLPGFEAVEADSSFPELDYGIRRLDHAVGNVPELAPAVNYLKKFTGFHEFAEFTAEDVGTSESGLNSVVLASNDEMVLLPLNEPVYGTKRKSQIETYLEHNEGAGLQHLALVSEDIFRTLREMRKRSTIGGFQFMPSPPPTYYRNLKKRAGDVLSDEQIKECEELGILVDRDDQGTLLQIGTKPVGDRPTIFIEIIQRIGCMLKDEEGKVYQKGGCGGFGKGNFSELFKSIEEYEKTLESRRTA
modifications: AhHPPDm-F372G Amino Acid Sequence
B6: ZmHPPDm-F372G: Zea mays HPPD mutant F372G, SEQ ID NO: 295 (protein)
chain: MPPTPTAAAAGAAVAAASAAEQAAFRLVGHRNFVRFNPRSDRFHTLAFHHVELWCADAASAAGRFSFGLGAPLAARSDLSTGNSAHASLLLRSGSLSFLFTAPYAHGADAATAALPSFSAAAARRFAADHGLAVRAVALRVADAEEAFRTSVAAGARPAFGPVDLGRGFRLAEVELYGDVVLRYVSYPDGAAGEPFLPGFEGVASPGAADYGLSRFDHIVGNVPELAPAAAYFAGFTGFHEFAEFTTEDVGTAESGLNSMVLANNSENVLLPLNEPVHGTKRRSQIQTFLDHHGGPGVQHMALASDDVLRTLREMQARSAMGGFEFMAPPTSDYYDGVRRRAGDVLTEAQIKECQELGVLVDRDDQGVLLQIGPKPVGDRPTLFLEIIQRIGCMERDEKGQEYQKGGCGGFGKGNFSQLFKSIEDYEKSLEAMQAAAAATAQGS
modifications: ZmHPPDm-F372G Amino Acid Sequence
B7: CyHPPDm-F372G: Cyanobacteria HPPD mutant F372G, SEQ ID NO: 335 (protein)
chain: MEFDYLHLYVDDYQSAHRCYQRQWGFTCVNKIITDQGITGIYQQGQILLLISASESSLSRYADYLQKHPPGVGEVAWQVANWQKIQHQLSELQIETTPVIHPLTKAEGLTFLLWGDVHHSIYPVRSELNQNKTLHGVGLTTIDHVVLNIAADQFTQASQWYQQVFGWSVQQSFTVNTPHSGLYSEALASANGKVQFNLNCPTNNSSQIQTFLANNHGAGIQHVAFSTTSITRTVAHLRERGVNFLKIPTGYYQQQRNSSYFNYASLDWDTLQCLEILLDDQDNTGERLLLQIGSQPCYGVGTLFWEIIERRHRAKGFGQGNFQALYEAVETLEKQLEVP
modifications: CyHPPDm-F372G Amino Acid Sequence
B8: S1HPPDm-F372G: Solanum lycopersicum HPPD mutant F372G, SEQ ID NO: 331 (protein)
chain: MGKQAAAAADDQQLPGDIEDKFKLVGFNHFVRTNPRSDFFTVKRFHHIEFWCGDATNTARRFSWGLGLPIAAISDLSTGNSVHASYLLRSSSSSQLQFLFTAPYSSAISTSSSASIPTFSVSSHRSFTATHGLGVRAIALEVENSRLAFSTCVAHGAKPVSEPVILNDEVVIAEVHLYGDVVLRFVSFLKDSNCFVFLPGFESVEGAQLDYGIRRLDHAVGNVPELGPVVEYIKSFTGFHEFAEFTAEDVGTAESGLNSVVLANNDETVLFPLNEPVYGTKRKSQIQTYLEHNEGAGVQHLALVTEDIFRTLREMRKRSGIGGFEFMPSPPPTYYKNLKTRAGDILSDEQIQECEELGILVDRDDQGTLLQIGTKPVGDRPTIFLEIIQRIGCMLKNEEGELYQKGGCGGFGKGNFSELFKSIEEYEKTLEAKQNTQVAIA
modifications: SlHPPDm-F372G Amino Acid Sequence
B9: StHPPDm-F372G: Solanum tuberosum HPPD mutant F372G, SEQ ID NO: 329 (protein)
chain: MGKQAATATATATATADDQQLPADIEDKYKLVGFNNFVRTNPRSDLFNVKRFHHIEFWCGDATNTARRFSWGLGLPIAAKSDLSTGNSVHASYLLRSSSSQLQFLFTAPYSPAISTPSSSSIPTFSVSSHRSFTETHGLGVRAIALEVENSRLAFSTCVSHGAKPVSEPVILNDEVVISEVHLYGDVVLRFVSFLKDSNRFVFLPGFELVEGAQLDYGIRRLDHAVGNVPQLGPVVEYIKSFTGFHEFAEFTAEDVGTAESGLNSVVLANNDETVLFPLNEPVYGTKRKSQIQTYLEHNEGAGVQHLALVTEDIFRTLREMRKRSGIGGFEFMPSPPPTYYKNLKSRAGDILSDEQIKECEELGILVDRDDQGTLLQIGTKPVGDRPTIFLEIIQRIGCMLQNAEGELYQKGGCGGFGKGNFSELFKSIEEYEKTLEAKQNTQVAIA
modifications: StHPPDm-F372G Amino Acid Sequence
B10: TaHPPDm-F372G: Triticum aestivum HPPD mutant F372G, SEQ ID NO: 301 (protein)
chain: MPPTPTTPAATGAGAAAAVTPEHARPRRMVRFNPRSDRFHTLSFHHVEFWCADAASAAGRFAFALGAPLAARSDLSTGNSVHASQLLRSGNLAFLFTAPYANGCDAATASLPSFSADAARRFSADHGLAVRSIALRVADAAEAFRASVDGGARPAFSPVDLGRGFGFAEVELYGDVVLRFVSHPDGTDVPFLPGFEGVSNPGAVDYGLTRFDHVVGNVPELASAAAYVAGFTGFHEFAEFTTEDVGTAESGLNSMVLANNSEGVLLPLNEPVHGTKRRSQIQTFLEHHGGPGVQHIAVASSDVLRTLREMRARSAMGGFDFLPPPLPKYYEGVRRIAGDVLSEAQIKECQELGVLVDRDDQGVLLQIGTKPVGDRPTLFLEMIQRIGCMEKDERGEEYQKGGCGGFGKGNFSELFKSIEDYEKSLEAKQSAAVQGS
modifications: TaHPPDm-F372G Amino Acid Sequence
B11: GsHPPDm-F372G: Gossypium hirsutum HPPD mutant F372G, SEQ ID NO: 299 (protein)
chain: MVQTNQSGSGNDFKLVGFSNFVRSNPKSDRFTVKRFHHIEFWCTDATNVARRFSWGLGMQFVAKSDLSTGNLTHASYLLRSRDLNFLFTAPYSPSIAVAQNLSPQSTASIPSFDHSLCRSFAATHGLGVRAIAIEVDDAETAFTTSVTHGALPFCPPTPLGDVATIAEVKLYGDVVLRYVSYTTTINSDHDFLPGFEKIEDTLSYPLDYGLRRLDHAVGNVPELGPAVSYVKSFTGFHEFAEFTAEDVGTSESGLNSVVLANNEEMVLLPMNEPVFGTKRKSQIQTYLEHNEGAGVQHLALVSEDIFKTLREMRKRSFVGGFEFMPSPPPTYYKKLKQRAGDILSDEQIKECEELGILVDRDDQGTLLQIGTKPVGDRPTIFIEIIQRIGCMVKDEEGKQYQKGGCGGFGKGNFSELFKSIEEYEKSLEAKQSQNP
modifications: GsHPPDm-F372G Amino Acid Sequence

system: Arabidopsis thaliana T1 plants; test: Topramezone tolerance of transgenic Arabidopsis thaliana T1 plants (pesticide damage grade by bleached leaf area, score, resistance evaluation); assay type: in vivo; conditions: topramezone 25 g ai/ha (1x); HPPD F372G mutants, Table 6
Method in brief: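 Eighteen days after sowing, wild-type and HPPD-transgenic T1 Arabidopsis receive a topramezone spray at 1×, 2× or 4× field rate (25–100 g ai/ha) or water. Seven days later each plant is graded by its proportion of bleached leaf area.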

| Molecule | Resistance evaluation |
| --- | --- |
| B1 | Highly resistant |
| B2 | Highly resistant |
| B3 | Highly resistant |
| B4 | Highly resistant |
| B5 | Poorly resistant |
| B6 | Highly resistant |
| B7 | Moderately resistant |
| B8 | Poorly resistant |
| B9 | Poorly resistant |
| B10 | Highly resistant |
| B11 | Moderately resistant |

same assay, conditions: topramezone 100 g ai/ha (4x); HPPD F372G mutants, Table 6

| Molecule | Resistance evaluation |
| --- | --- |
| B1 | Highly resistant |
| B2 | Highly resistant |
| B3 | Highly resistant |
| B4 | Highly resistant |
| B5 | Non-resistant |
| B6 | Moderately resistant |
| B7 | Non-resistant |
| B8 | Non-resistant |
| B9 | Non-resistant |
| B10 | Moderately resistant |
| B11 | Non-resistant |
